This note sets out measurements from US20240252614A1 (Pfizer, published 2024).

Assay [1] has as its target hMPV B F WT Control (hMPV B, UniProt Q6WB98 19-102). Description: BLI, 56C stress.
Description: (§1) All measurements were conducted at 30° C. temperature in 96-well black plates (Corning, Corning, NY) with a final volume of 240 μL per well at a constant agitation rate of 1000 RPM.
(§2) Conformation integrity of hMPV B F protein mutants were evaluated by a thermal stress experiment. Crude cell culture supernatants were normalized based on the results of the titer quantitation and then incubated for 1 hour at room temperature and two higher temperatures. For the testing of hMPV B single mutants, the two temperatures were 53° C. and 56° C. After the incubation, the protein mutants were probed with prefusion specific monoclonal antibody hMPV-2 by OCTET HTX. Anti-Human IgG Fc Capture (AHC) biosensors were first equilibrated in PB before being dipped into more PB for to establish the initial baseline. Biosensors were incubated with hMPV-2 before being equilibrated in PB to establish the experimental baseline. The mAb-bound biosensors were then dipped into the thermal stresses cell culture supernatants for 5 minutes.
In assay [2] the target is T1, hMPV117 (hMPV B, UniProt Q6WB98 19-102).
T1 construct: T150C-R156C, A459P
The assay can be described thus: BLI, 56C stress. In general terms: In BLI a coated tip is dipped into the sample, and binding shifts an interference pattern.
Description: as §1, §2

The target in assay [3] is T2, hMPV118 (hMPV B, UniProt Q6WB98 19-102).
T2 construct: T49I, T150C-R156C
The assay can be described thus: BLI, 56C stress.
Description: as §1, §2

Assay [4] concerns the target T3, hMPV119 (hMPV B, UniProt Q6WB98 19-102).
T3 construct: T49I, T150C-R156C, A459P
The assay can be described thus: BLI, 56C stress.
Description: as §1, §2

The target in assay [5] is T4, hMPV120 (hMPV B, UniProt Q6WB98 19-102).
T4 construct: A140C-S149C, T411C-Q434C
The assay can be described thus: BLI, 56C stress.
Description: as §1, §2

In assay [6] the target is T5, hMPV121 (hMPV B, UniProt Q6WB98 19-102).
T5 construct: L141C-A161C, T411C-Q434C
The assay can be described thus: BLI, 56C stress.
Description: as §1, §2

Assay [7] has as its target T6, hMPV122 (hMPV B, UniProt Q6WB98 19-102).
T6 construct: A140C-S149C, T411C-Q434C, A459P
Description: BLI, 56C stress.
Description: as §1, §2

Assay [8] has as its target T7, hMPV123 (hMPV B, UniProt Q6WB98 19-102).
T7 construct: A140C-S149C, G239A, T411C-Q434C
The assay can be described thus: BLI, 56C stress.
Description: as §1, §2

The target of assay [9] is T8, hMPV124 (hMPV B, UniProt Q6WB98 19-102).
T8 construct: L141C-A161C, T411C-Q434C, A459P
The assay can be described thus: BLI, 56C stress.
Description: as §1, §2

The target in assay [10] is T9, hMPV125 (hMPV B, UniProt Q6WB98 19-102).
T9 construct: L141C-A161C, G239A, T411C-Q434C
The assay can be described thus: BLI, 56C stress.
Description: as §1, §2

The target in assay [11] is T10, hMPV126 (hMPV B, UniProt Q6WB98 19-102).
T10 construct: T49I, T150C-R156C, G239A, A459P
Description: BLI, 56C stress.
Description: as §1, §2

The target in assay [12] is T11, hMPV127 (hMPV B, UniProt Q6WB98 19-102).
T11 construct: A140C-S149C, G239A, T411C-Q434C, A459P
The assay can be described thus: BLI, 56C stress.
Description: as §1, §2

Assay [13] has as its target T12, hMPV128 (hMPV B, UniProt Q6WB98 19-102).
T12 construct: T49I, A140C-S149C, G239A, T411C-Q434C, A459P
The assay can be described thus: BLI, 56C stress.
Description: as §1, §2

The target of assay [14] is T13, hMPV129 (hMPV B, UniProt Q6WB98 19-102).
T13 construct: T49I, A140C-S149C, G239A, T365I, T411C-Q434C, A459P
The assay can be described thus: BLI, 56C stress.
Description: as §1, §2

Assay [15] concerns the target T14, hMPV130 (hMPV B, UniProt Q6WB98 19-102).
T14 construct: L141C-A161C, G239A, T411C-Q434C, A459P
Description: BLI, 56C stress.
Description: as §1, §2

Assay [16] addresses T15, hMPV131 (hMPV B, UniProt Q6WB98 19-102).
T15 construct: T49I, L141C-A161C, G239A, T411C-Q434C, A459P
Description: BLI, 56C stress.
Description: as §1, §2

The target of assay [17] is T16, hMPV132 (hMPV B, UniProt Q6WB98 19-102).
T16 construct: L141C-A161C, S149T, G239A, T411C-Q434C, A459P
The assay can be described thus: BLI, 56C stress.
Description: as §1, §2

Assay [18] concerns the target T17, hMPV133 (hMPV B, UniProt Q6WB98 19-102).
T17 construct: T49I, L141C-A161C, S149T, G239A, T411C-Q434C, A459P
The assay can be described thus: BLI, 56C stress.
Description: as §1, §2

Assay [19] has as its target T18, hMPV134 (hMPV B, UniProt Q6WB98 19-102).
T18 construct: T49I, L141C-A161C, S149T, G239A, T365I, T411C-Q434C, A459P
The assay can be described thus: BLI, 56C stress.
Description: as §1, §2

Assay [20] has as its target T19, hMPV135 (hMPV B, UniProt Q6WB98 19-102).
T19 construct: T49I, S149T, A459P
The assay can be described thus: BLI, 56C stress.
Description: as §1, §2

Assay [21] has as its target T20, hMPV136 (hMPV B, UniProt Q6WB98 19-102).
T20 construct: A140C-S149C, A459P
Description: BLI, 56C stress.
Description: as §1, §2

Assay [22] has as its target T21, hMPV137 (hMPV B, UniProt Q6WB98 19-102).
T21 construct: T49I, A140C-S149C
The assay can be described thus: BLI, 56C stress.
Description: as §1, §2

Assay [23] has as its target T22, hMPV138 (hMPV B, UniProt Q6WB98 19-102).
T22 construct: T49I, A140C-S149C, A459P
Description: BLI, 56C stress.
Description: as §1, §2

The target of assay [24] is T23, hMPV139 (hMPV B, UniProt Q6WB98 19-102).
T23 construct: T49I, L141C-A161C, T411C-Q434C
The assay can be described thus: BLI, 56C stress.
Description: as §1, §2

Assay [25] addresses T24, hMPV140 (hMPV B, UniProt Q6WB98 19-102).
T24 construct: T49I, L141C-A161C, T411C-Q434C, A459P
Description: BLI, 56C stress.
Description: as §1, §2

The target of assay [26] is T25, hMPV142 (hMPV B, UniProt Q6WB98 19-102).
T25 construct: L141C-A161C, S149T, A459P
Description: BLI, 56C stress.
Description: as §1, §2

Assay [27] has as its target T26, hMPV144 (hMPV B, UniProt Q6WB98 19-102).
T26 construct: T49I, L141C-A161C, S149T, A459P
Description: BLI, 56C stress.
Description: as §1, §2

Assay [28] deals with T27, stabilized hMPV F protein trimer in pre-fusion conformation (human metapneumovirus).
T27 construct: also called preF-hMPV; hMPV pre-fusion F protein
Description: BLI, mAb captured, F protein at 50 nM.

Assay [29] has as its target T28, PIV1043 (PIV1).
T28 construct: Q92A, G134A
The assay can be described thus: BLI, 53C stress.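 Note: binding of thermally stressed PIV1 F mutant supernatant to mAb on AHC biosensors for 5 min.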
Description: as §1
(§3) Conformation integrity of PIV1 F protein mutants were evaluated by a thermal stress experiment. Crude cell culture supernatants were normalized based on the results of the titer quantitation and then incubated for 1 hour at room temperature and two higher temperatures. For the initial testing of PIV1 mutants, the two temperatures were 50° C. and 53° C. […] Anti-Human IgG Fc Capture (AHC) biosensors were first equilibrated in PB for before being dipped into more PB to establish the initial baseline. […] The mAb-bound biosensors were then dipped into the thermal stresses cell culture supernatants for 5 minutes.

In assay [30] the target is T29, PIV1046 (PIV1).
T29 construct: A466V, S473V
The assay can be described thus: BLI, 53C stress.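 Note: binding of thermally stressed PIV1 F mutant supernatant to mAb on AHC biosensors for 5 min.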
Description: as §1, §3

B1: hMPV-2 mAb (antibody, V domains shown)
VH: QVQLQQSGAEVKKPGASVKVSCKASGYTFTSYGISWVRQAPGQGLEWMGWISGYNGNTNYAQTFQGTFTMTTDTSTSTAYMELRRLRSGDTAVYYCARDRYYASGSYNGMDVWGQGTTVTVSS
VL: QSALTQPPSASGAPGQRVTVSCSGSSSNVGSSSVYWYQQLPGTAPKLLIYRNNQRPSGVPDRFSGSKSGTSASLAISGLRSEDEADYYCAAWDDSLSGWVFGGGTKLTVLG
notes: human IgG1
Consider B1, for which the “Response Shift” value in [1] was determined as 0.122 nm; in assay [2] it was 0.64 nm; in [3], 0.801 nm; in assay [4], 0.828 nm; in [5], 0.564 nm; in assay [6] it was 0.794 nm. The “Response Shift” value in assay [7] was found to be 0.686 nm; in assay [8], 0.559 nm; in assay [9], 0.766 nm; in assay [10] it was 0.785 nm; in [11], 0.73 nm; in [12], 0.674 nm. In addition, the “Response Shift” value was 0.769 nm in assay [13]; 0.632 nm in assay [14]; 0.62 nm in assay [15]; 0.657 nm in assay [16]; 0.694 nm in assay [17]; 0.616 nm in assay [18]. Further, the “Response Shift” value was 0.665 nm in assay [19]; 0.724 nm in [20]; 0.541 nm in [21]; 0.626 nm in assay [22]; 0.663 nm in [23]; 0.65 nm in assay [24]. Moreover, the “Response Shift” value in assay [25] is 0.66 nm; in [26], 0.706 nm; in [27] it was 0.67 nm. The “Binding response BLI” value in [28] turned out to be 1.21 nm.

B2: PIV1-8 mAb (antibody, V domains shown)
VH: QVQLVQSGAEVKKPGSSVKVSCEASGGTFSNYVISWVRQAPGQGLEWMGGIIPVFATAKYAQKFQGRVTIIADQSTNTAYLELSSLRSDDTAVYFCASVDSGGTWWDAFAIWGQGTMVTVSS
VL: QAVVTQPRSVSGSPGQAVTISCTGTSSDVGGYNYVSWYQHHPGKAPKLIIYDVTKRPSGVPDRFSGSKSGNTASLTISGLQTEYEADYYCCSYAGSYTLVFGGGTKLTVLG
notes: human IgG1; also called hPIV1-8 mAb; hPIV1-8
Take B2: the “Response Shift” value in [29] was -0.012 nm; in assay [30], -0.059 nm. In addition, the “Binding response BLI” value in assay [28] was -0.051 nm.
